Substitutions are numbered along the chain they refer to.
B1: PRT-435 (protein)
chain: MSQTEDSESLQRLRDIEDFQAEKEKQNVVYTKWLDGVDVKDHDFRKIVDGNIAYYATPLLNGRGFYDINKDFNRDSDKCAAAVAANMFHYWLDRNRDNVDRFLRQNPEKHGIIELPDGQLKLSDFLNTYESDDGYRDKSKLFDFISNNFNGPVWTDKLLDNYINGYAYNYKYGRTIEDPTKNTSKINFFKEVFNEKILTNNHSIRNQNEFSVLLSEALYTGKAIGLSYGPAGLRHSLGHIISVWGADLDADGNVVAIYVTDSDDKKLTIGDERVGLKRYKISTDDEGRLRLTAYEETHNTGGQIRGLWTLDTGKQAWADYFDKTEQTGTDQAEQ
B2: PRT-431 (protein)
chain: B1 chain with E24K, N147E
B3: PRT-432 (protein)
chain: B1 chain with E24K, Y170S
B4: PRT-436 (protein)
chain: B1 chain with E24K, K25D
B5: PRT-438 (protein)
chain: B1 chain with E24K, F65L
B6: PRT-440 (protein)
chain: B1 chain with E24K, F210L
B7: PRT-441 (protein)
chain: B1 chain with E24K, L233T
B8: PRT-445 (protein)
chain: B1 chain with E24K, P179S
B9: PRT-577 (protein)
chain: MANQEIRYSKATPSTITSVWTKGVTPPENFIYNEDVLHAPYLANQGWYDITKTFNGKDDLLCGAATAGNMLHWWFDQNKEQIERYLKEHPEKQKINFNGEQMFDVKEAIDTKDSQTNSKLFEYFKDKAFPYLSTKHLGVFPDHVIDMFINGYRLSLTNHGPTPVKEQTKDPRGGIFDAVFTRGDQSKLLTSRHDFKEKTLNEISQLIKQELTEGKALGLSHTYANVRINHVINLWGADFNAEGNLEAIYVTDSDSNASIGMKKYYVGVNSAGKVAISAKEIEGDNIGAQVLGLFTLSTGQDIWQQTNLEHHHHHH
B10: PRT-585 (protein)
chain: B9 chain with N29Q, L42I, E88K, Q205D, Q304E
B11: PRT-594 (protein)
chain: MANQEIRYSEETPSTITSVWTKGVTPPTDFIQNEDVLHAPYIANQGWYDITKTFNGKDDLLCGAATAGNMLHWWFDQNKEQIENYLKKHPEKQKINFNGEQMFDVKEAIDTKDSQLDSALFEYFKDKAFPYLSTKHLGVFPDHVIDMFINGYRLSLTNHGPTPVKRGTKDPRGGIFDAVFTRGDQSKLLTSRHDFKEKTLNEISDLIKQELTEGKALGLSHTYANVRINHVINLWGADFNAEGNLEAIYVTDSDSNASIGMKKYYVGVNSAGKVAISAKEIEGDNIGAQVLGLFTLSTGQDIWNQTNLEHHHHHH

What follows are proteins tested against pooled human IgG (human IgG1,2,3 and 4).

B1 was tested, and the Enzyme Activity Endpoint Assay: Fab′2 was 35 ng/µL.

In the case of B1, the Enzyme Activity Endpoint Assay: Fc is reported as 205 ng/µL.

B1 gave an Enzyme Activity Endpoint Assay: IgG of 625 ng/µL.

Protein B1 has an Enzyme Activity Endpoint Assay: scIgG of 380 ng/µL.

Each protein was assayed against pooled human IgG (human IgG1, 2, 3 and 4).

Going from B1 to B2, the Enzyme Activity Endpoint Assay (purified): Fab′2 rises from 35 ng/µL to 521 ng/µL.

Work on B3 yielded an Enzyme Activity Endpoint Assay (purified): Fab′2 of 462 ng/µL.

Compared with B1, B2 is higher in Enzyme Activity Endpoint Assay (purified): Fc: 205 ng/µL for the first, 310 ng/µL for the second.

B3 and B4 are the same in Enzyme Activity Endpoint Assay (purified): Fc: 305 ng/µL for the first, 305 ng/µL for the second.

Compared with B5, B6 is higher in Enzyme Activity Endpoint Assay (purified): Fc: 320 ng/µL for the first, 328 ng/µL for the second.

Going from B7 to B8, the Enzyme Activity Endpoint Assay (purified): Fc rises from 310 ng/µL to 330 ng/µL.

First: B9
Second: B10
The Enzyme Activity Endpoint Assay (purified): Fc of the first is higher: 338 ng/µL for the first, 303 ng/µL for the second.

In the case of B11, the Enzyme Activity Endpoint Assay (purified): Fc is reported as 271 ng/µL.

Going from B1 to B2, the Enzyme Activity Endpoint Assay (purified): IgG falls from 625 ng/µL to 0 ng/µL.

B3 and B4 are the same in Enzyme Activity Endpoint Assay (purified): IgG: 0 ng/µL for the first, 0 ng/µL for the second.

B5 and B6 are the same in Enzyme Activity Endpoint Assay (purified): IgG: 0 ng/µL for the first, 0 ng/µL for the second.

B7 and B8 are the same in Enzyme Activity Endpoint Assay (purified): IgG: 0 ng/µL for the first, 0 ng/µL for the second.

B9 and B10 are the same in Enzyme Activity Endpoint Assay (purified): IgG: 0 ng/µL for the first, 0 ng/µL for the second.

In the case of B11, the Enzyme Activity Endpoint Assay (purified): IgG is reported as 123 ng/µL.

Compared with B1, B2 is lower in Enzyme Activity Endpoint Assay (purified): scIgG: 380 ng/µL for the first, 230 ng/µL for the second.

First: B3
Second: B4
The Enzyme Activity Endpoint Assay (purified): scIgG of the first is higher: 385 ng/µL for the first, 379 ng/µL for the second.

Compared with B5, B6 is lower in Enzyme Activity Endpoint Assay (purified): scIgG: 249 ng/µL for the first, 245 ng/µL for the second.

First: B7
Second: B8
The Enzyme Activity Endpoint Assay (purified): scIgG of the first is lower: 217 ng/µL for the first, 259 ng/µL for the second.

Compared with B9, B10 is lower in Enzyme Activity Endpoint Assay (purified): scIgG: 230 ng/µL for the first, 229 ng/µL for the second.

In the case of B11, the Enzyme Activity Endpoint Assay (purified): scIgG is reported as 487 ng/µL.

Compared with B4, B5 is higher in Enzyme Activity Endpoint Assay (purified): Fab'2: 445 ng/µL for the first, 578 ng/µL for the second.

First: B6
Second: B7
The Enzyme Activity Endpoint Assay (purified): Fab'2 of the first is higher: 575 ng/µL for the first, 514 ng/µL for the second.

First: B8
Second: B9
The Enzyme Activity Endpoint Assay (purified): Fab'2 of the first is lower: 559 ng/µL for the first, 566 ng/µL for the second.

Going from B10 to B11, the Enzyme Activity Endpoint Assay (purified): Fab'2 falls from 574 ng/µL to 138 ng/µL.

— US20250027068
